According to patent publication US20240301041A1 (Regeneron, published 2024):

What was measured:
[1] = biological target: T1, IgG binding protein (Protein A homolog SpsQ/SpsP) on MRSP S. pseudintermedius 88493 (Staphylococcus pseudintermedius); assay: ELISA, coated S. pseudintermedius 88493, antibody 1.47E-13 M
T1 construct: whole, on cells; also called MRSP Staphylococcus pseudintermedius 88493 (methicillin-resistant)

[2] = biological target: T2, Protein A on the surface of S. aureus Newman wild-type (Staphylococcus aureus (strain Newman), UniProt P38507 37-477); assay: flow cytometry; blocking antibody 10 ug/mL, then Alexa-488 Fc fragment (competitor) on wild-type S. aureus
T2 construct: whole, on cells; also called S. aureus Newman WT; wild-type S. aureus expressing Protein A

[3] = biological target: T3, IgG binding protein (Protein A homolog SpsQ/SpsP) on S. pseudintermedius AHDRCC 98200 (Staphylococcus pseudintermedius); assay: ELISA, coated S. pseudintermedius 98200, antibody 4.82E-09 M
T3 construct: whole, on cells; also called S. pseudintermedius 98200; Staphylococcus pseudintermedius AHDRCC 98200

[4] = biological target: T1, IgG binding protein (Protein A homolog …); assay: ELISA, coated S. pseudintermedius 88493, antibody 6.03E-10 M
[5] = biological target: T2, Protein A on the surface of S. aureus …; assay: ELISA, coated S. aureus Newman, antibody 1.47E-13 M
[6] = biological target: T2, Protein A on the surface of S. aureus …; assay: ELISA on plate-coated S. aureus Newman WT (grown in TSB)
[7] = biological target: T2, Protein A on the surface of S. aureus …; assay: flow cytometry; blocking antibody 10 ug/mL, then Alexa-488 VH3 hIgG1*/* antibody (competitor) on wild-type S. aureus
[8] = biological target: T4, IgG binding protein (Protein A homolog SpsQ/SpsP) on S. intermedius 27369 (Staphylococcus intermedius); assay: ELISA, coated S. intermedius 27369, antibody 3.09E-07 M
T4 construct: whole, on cells; also called Staphylococcus intermedius 27369

[9] = biological target: T1, IgG binding protein (Protein A homolog …); assay: ELISA, coated S. pseudintermedius 88493, antibody 1.18E-12 M
[10] = biological target: T2, Protein A on the surface of S. aureus …; assay: ELISA, coated S. aureus Newman, antibody 1.18E-12 M
[11] = biological target: T4, IgG binding protein (Protein A homolog …); assay: ELISA, coated S. intermedius 27369, antibody 3.86E-08 M
[12] = biological target: T3, IgG binding protein (Protein A homolog …); assay: ELISA, coated S. pseudintermedius 98200, antibody 6.03E-10 M
[13] = biological target: T4, IgG binding protein (Protein A homolog …); assay: ELISA, coated S. intermedius 27369, antibody 1.47E-13 M
[14] = biological target: T3, IgG binding protein (Protein A homolog …); assay: ELISA, coated S. pseudintermedius 98200, antibody 1.18E-12 M
[15] = biological target: T4, IgG binding protein (Protein A homolog …); assay: ELISA, coated S. intermedius 27369, antibody 9.42E-12 M
[16] = biological target: T2, Protein A on the surface of S. aureus …; assay: cell-based or functional assay
[17] = biological target: T3, IgG binding protein (Protein A homolog …); assay: cell-based or functional assay
[18] = biological target: T4, IgG binding protein (Protein A homolog …); assay: cell-based or functional assay
[19] = biological target: T2, Protein A on the surface of S. aureus …; assay: ELISA, coated S. aureus Newman, antibody 7.54E-11 M

B1: H1xH15140P*/* (anti-Protein A) (antibody, V domains shown)
VH: EVQLVESGGGLVQPGGSLTLSCTASGFSFSSYVMSWVRQSPGKGLEWVSAIGGSGTSTYYRDSVKGRFTISRDNSKNTLNLQMSSLRAEDTAVYYCARDGLGHRDYWGQGTLVTVSS
VL: DIQMTQSPSSVSASVGDRVTITCRASQGINSWLAWYQQKPGKAPKLLIYAASSLQSGVPSRFSGSGSGTDFTLTISSLQPEDFATYYCQQANSFPFTFGPGTKVDIK
notes: also called anti-Protein A hIgG1*/*; H1xH15140P*/*-L1
ELISA luminescent signal [1]: 3470 | Fc: S. aureus blocking activity (%) [2]: 97% | ELISA luminescent signal [3]: 3400 | ELISA luminescent signal [4]: 10000 | ELISA luminescent signal [5]: 22000 | EC50 [6]: 0.0906 nM | VH3 antibody: S. aureus blocking activity (%) [7]: 84.7% | ELISA luminescent signal [8]: 21000 | ELISA luminescent signal [9]: 5990 | ELISA luminescent signal [10]: 28400 | ELISA luminescent signal [11]: 8310 | ELISA luminescent signal [12]: 4890 | ELISA luminescent signal [13]: 1510 | ELISA luminescent signal [14]: 5020 | ELISA luminescent signal [15]: 1520 | median cfu/mL after 16 h in 50% normal human serum, mAb 10 ug/mL [16]: 4.3e+06 cfu/mL | median cfu/mL after 16 h in 50% normal human serum, mAb 30 ug/mL [16]: 1e+06 cfu/mL | median cfu/mL after 16 h in 50% normal human serum, mAb 90 ug/mL [16]: 600000 cfu/mL | median cfu/mL after 16 h in 50% normal human serum, mAb 270 ug/mL [16]: 180000 cfu/mL | median cfu/mL after 16 h in 50% normal human serum, mAb 10 ug/mL [17]: 7.3e+06 cfu/mL | median cfu/mL after 16 h in 50% normal human serum, mAb 30 ug/mL [17]: 6.8e+06 cfu/mL | median cfu/mL after 16 h in 50% normal human serum, mAb 90 ug/mL [17]: 6.8e+06 cfu/mL | median cfu/mL after 16 h in 50% normal human serum, mAb 270 ug/mL [17]: 4.5e+06 cfu/mL | median cfu/mL after 16 h in 50% normal human serum, mAb 10 ug/mL [18]: 6e+06 cfu/mL | median cfu/mL after 16 h in 50% normal human serum, mAb 30 ug/mL [18]: 8.3e+06 cfu/mL | median cfu/mL after 16 h in 50% normal human serum, mAb 90 ug/mL [18]: 8.5e+06 cfu/mL | median cfu/mL after 16 h in 50% normal human serum, mAb 270 ug/mL [18]: 3.8e+06 cfu/mL | ELISA luminescent signal [19]: 238000
